B1: Pistol ribozyme (parent)
chain: GGGUCGUUGUUCCAUAAUCGCGUGGAUAUGGCACGCAAGUUUCUACCGGGCACCGUAAAUGUCCGACUGGAGCCGUUCGGGCGGCUAUAAACAGACCUCAGGCCCGAAGCGUGGCGGCACCUGCCGCCGGUGGUAAAAAAGAUCGGAAGAGCACACGUCU

Variants of: B1
Assay: aptazyme ON/OFF ratio, guanine; higher = stronger switching; co-transcriptional cleavage with and without guanine

Variant	aptazyme ON/OFF ratio
U7G U8A U10G U11G C12U	1.26
U7G U8A U10G U11G C12G	1.5
U7G U8A U10G U11G C12A	1.3
U7G U8C G9A U11A C12U	1.36
U7G U8C G9A U11A C12G	1.1
U7G U8C G9A U11A C12A	1.2
U7G U8C G9A U10G U11G C12U C13A	1.28
U7G U8C G9A U10G U11G C12U C13U	1.52
U7G U8C G9A U10G U11G C12U C13G	1.22
U7G U8A U10G U11C C12G C13A	1.4
U7G U8A U10G U11C C12G C13G	1.26
U7G U8A U10G U11C C12G C13U	1.25
U7G U8C G9A U10G U11C C12G C13A	1.14
U7G U8C G9A U10G U11C C12G C13U	1.18
U7G U8C G9A U10G U11C C12G C13G	1.02
U7G U8C G9A U10C U11A C12U C13A	1.08
U7G U8C G9A U10C U11A C12U C13G	1.06
U7G U8C G9A U10C U11A C12U C13U	1.02
U7G U8C G9A U11C C12A C13U	1.5
U7G U8C G9A U11C C12A C13A	1.11
U7G U8C G9A U11C C12A C13G	1.17
U7G U8A U10G U11G	1.59
U7G U8C G9A U10G U11C	1.04
U7G U8C G9A U10G U11G	1.77

Variant	aptazyme ON/OFF ratio
U7G U8C G9A U10G U11A	1.07
U7G U8A U11A C12A C13G	1.24
U7G U8A U11A C12A C13U	1.39
U7G U8A U11A C12A C13A	1.35
U7G U8C G9A U10A	3.78
U7G U8C G9A U10G	3.04
U7G U8C G9A U10C	3.27
U7G U8C G9A U10G U11A C12G	1.08
U7G U8C G9A U10G U11A C12U	1.06
U7G U8C G9A U10G U11A C12A	1.11
U7G U8C G9A U10C U11A C12U	1.18
U7G U8C G9A U10C U11A C12A	1.33
U7G U8C G9A U10C U11A C12G	1.18
U7G U8C G9A U10A U11G C12A C13A	1.06
U7G U8C G9A U10A U11G C12A C13U	1.09
U7G U8C G9A U10A U11G C12A C13G	1.12
U7G U8C G9A U10A U11C C12A C13G	1.25
U7G U8C G9A U10A U11C C12A C13A	1.13
U7G U8C G9A U10A U11C C12A C13U	1.13
U7G U8A U11G C12A C13U	1.34
U7G U8A U11G C12A C13A	1.24
U7G U8A U11G C12A C13G	1.37
U7G U8C G9A U11G C12A C13A	1.1
U7G U8C G9A U11G C12A C13G	1.1

Variant	aptazyme ON/OFF ratio
U7G U8C G9A U10A U11A C12A	1.28
U7G U8C G9A U10A U11A C12U	1.4
U7G U8C G9A U10A U11A C12G	1.22
U7G U8C G9A U10G U11A C13A	1.05
U7G U8C G9A U10G U11A C13G	1.04
U7G U8C G9A U10G U11A C13U	1.05
U7G U8C G9A	4.1
U7G U8A U10G U11C C13U	1.5
U7G U8A U10G U11C C13A	1.21
U7G U8A U10G U11C C13G	1.16
U7G U8A U11A C12G	1.22
U7G U8A U11A C12A	1.25
U7G U8A U11A C12U	1.43
U7G U8A U10G U11G C12A C13A	1.16
U7G U8A U10G U11G C12A C13G	1.38
U7G U8A U10G U11G C12A C13U	1.73
U7G U8C G9A U10C C13A	1.07
U7G U8C G9A U10C C13G	1.08
U7G U8C G9A U10C C13U	1.58
U7G U8C G9A U10C C12G C13U	1.28
U7G U8C G9A U10C C12G C13A	1.12
U7G U8C G9A U10C C12G C13G	1.19
U7G U8C G9A U10C C12A C13A	1.12
U7G U8C G9A U10C C12A C13G	1.14

Variant	aptazyme ON/OFF ratio
U7G U8C G9A U10C C12A C13U	1.19
U7G U8A U11A C12G C13G	1.18
U7G U8A U11A C12G C13U	1.21
U7G U8A U11A C12G C13A	1.08
U7G U8C C12A C13U	1.08
U7G U8C C12A C13A	1.13
U7G U8C C12A C13G	1.1
U7G U8A U11G C12A	1.45
U7G U8A U11G C12U	1.25
U7G U8A U11G C12G	1.33
U7G U8C G9A U10C C12U C13A	1.15
U7G U8C G9A U10C C12U C13U	1.08
U7G U8C G9A U10C C12U C13G	1.11
U7G U8C G9A U10C U11C C12U C13G	1.04
U7G U8C G9A U10C U11C C12U C13U	1.06
U7G U8C G9A U10C U11C C12U C13A	1.04
U7G U8C G9A U10A U11G C12U C13U	1.21
U7G U8C G9A U10A U11G C12U C13G	1.2
U7G U8C G9A U10A U11G C12U C13A	1.16
U7G U8A U11C C12U	1.41
U7G U8A U11C C12G	1.24
U7G U8A U11C C12A	1.29
U7G U8C G9A U10A U11C C13A	1.1
U7G U8C G9A U10A U11C C13U	1.08

Variant	aptazyme ON/OFF ratio
U7G U8C G9A U10A U11C C13G	1.05
U7G U8C G9A U10C U11G C13G	1.27
U7G U8C G9A U10C U11G C13A	1.16
U7G U8C G9A U10C U11G C13U	1.24
U7G U8C G9A U10A U11A C12A C13U	1.17
U7G U8C G9A U10A U11A C12A C13A	1.21
U7G U8C G9A U10A U11A C12A C13G	1.12
U7G U8C G9A U11C C12G C13A	1.05
U7G U8C G9A U11C C12G C13U	1.16
U7G U8C G9A U11C C12G C13G	1.05
U7G U8C	1.32
U7G U8C G9A U10C U11A	3.52
U7G U8C G9A U10C U11C	1.16
U7G U8C G9A U10C U11G	1.5
U7G U8C G9A U10A U11C C12G C13A	1.08
U7G U8C G9A U10A U11C C12G C13G	1.03
U7G U8C G9A U10A U11C C12G C13U	1.09
U7G U8C G9A U10A U11G C12G C13U	1.09
U7G U8C G9A U10A U11G C12G C13G	1.14
U7G U8C G9A U10A U11G C12G C13A	1.08
U7G U8C G9A U10A U11A C13A	1.09
U7G U8C G9A U10A U11A C13U	1.21
U7G U8C G9A U10A U11A C13G	1.04
U7G U8C G9A U10A C12A C13G	1.13

Variant	aptazyme ON/OFF ratio
U7G U8C G9A U10A C12A C13A	1.23
U7G U8C G9A U10A C12A C13U	1.2
U7G U8C G9A U10A C13G	1.06
U7G U8C G9A U10A C13A	1.19
U7G U8C G9A U10A C13U	1.83
U7G U8C G9A U10G U11G C12G C13A	1.13
U7G U8C G9A U10G U11G C12G C13G	1.2
U7G U8C G9A U10G U11G C12G C13U	1.14
U7G U8A U11C C12A C13U	1.46
U7G U8A U11C C12A C13A	1.23
U7G U8A U11C C12A C13G	1.36
U7G U8C G9A U10A U11C C12U C13G	1.13
U7G U8C G9A U10A U11C C12U C13U	1.16
U7G U8C G9A U10A U11C C12U C13A	1.14
U7G U8C G9A U11G	1.3
U7G U8C G9A U11A	2.48
U7G U8C G9A U11C	1.4
U7G U8C G9A U10G C12U C13G	1.1
U7G U8C G9A U10G C12U C13U	1.26
U7G U8C G9A U10G C12U C13A	1.12
U7G U8C G9A U10G U11C C12G	1.2
U7G U8C G9A U10G U11C C12U	1.09
U7G U8C G9A U10G U11C C12A	1.3
U7G U8C G9A U10G U11C C12A C13A	1.15

Variant	aptazyme ON/OFF ratio
U7G U8C G9A U10G U11C C12A C13G	1.16
U7G U8C G9A U10G U11C C12A C13U	1.19
U7G U8C G9A U10G U11A C12U C13G	1.09
U7G U8C G9A U10G U11A C12U C13A	1.09
U7G U8C G9A U10G U11A C12U C13U	1.13
U7G U8C G9A C12A C13A	1.08
U7G U8C G9A C12A C13G	1.05
U7G U8C G9A C12A C13U	1.06
U7G U8C G9A U10A C12A	1.15
U7G U8C G9A U10A C12G	1.24
U7G U8C G9A U10A C12U	1.62
U7G U8A U11G C12U C13U	1.17
U7G U8A U11G C12U C13A	1.34
U7G U8A U11G C12U C13G	1.26
U7G U8A U11C C13A	1.32
U7G U8A U11C C13G	1.11
U7G U8A U11C C13U	1.2
U7G U8C G9A U10A C12G C13A	1.07
U7G U8C G9A U10A C12G C13G	1.08
U7G U8C G9A U10A C12G C13U	1.15
U7G U8C G9A U10G U11G C13U	1.38
U7G U8C G9A U10G U11G C13A	1.31
U7G U8C G9A U10G U11G C13G	1.28

— the RNAGym collection of RNA variant scans (doi:10.1021/acssynbio.7b00057)
